According to US20140294898A1 (published 2014):
Values belong to the binder of their own block, whether it stands above or below them. Starred links: 1 amine or outer side, 2 acyl side, 3 side chain; linkers in the order of their positions; H or OH if unused. Positions of bridges follow the written chain, without caps; N, C: chain ends. Non-standard residues stand in square brackets, D forms with d. Primed or numbered codes have the meaning given here. trans‑Pro(4-(4-fluorobenzyl)) = trans-4-(4-fluorobenzyl)-L-proline, O=C([C@@H]1C[C@@H](Cc2ccc(F)cc2)CN1[*:1])[*:2]; Pro(cis-4-Ph) = O=C(O)[C@@H]1C[C@H](c2ccccc2)CN1; NMeF = CN[C@@H](Cc1ccccc1)C(=O)O; PEG12′ = C-terminal PEG12 spacer; NMeNle = CCCC[C@H](NC)C(=O)O; NMeA = CN[C@@H](C)C(=O)O; Dab = NCC[C@H](N)C(=O)O; Sar = CNCC(=O)O

Columns and labels:
hPDL1(19-239)-TVMV-His [1] = target: T1, hPDL1(19-239)-TVMV-His (human, UniProt Q9NZQ7 19-239); experiment: HTRF competition, inhibitor titrated against PD-1-Ig binding to PD-L1-His
T1 construct: The text says amino acids 18-239, the construct name says 19-239; also called PD-L1-His; PD-L1-TVMV-His
Description: (§1) All binding studies were performed in an HTRF assay buffer consisting of dPBS supplemented with 0.1% (w/v) bovine serum albumin and 0.05% (v/v) Tween-20. […] PD-L1 fusion proteins from either human, cynomologous macaques, or mouse were used. HTRF detection was achieved using europium crypate-labeled anti-Ig monoclonal antibody (1 nM final) and allophycocyanin (APC) labeled anti-His monoclonal antibody (20 nM final). Antibodies were diluted in HTRF detection buffer and 5 μl was dispensed on top of binding reaction. The reaction was allowed to equilibrate for 30 minutes and signal (665 nm/620 nm ratio) was obtained using an EnVision fluorometer. […]
T1 sequence (Q9NZQ7 other isoform, or with tags, fused parts or gaps limits assumed): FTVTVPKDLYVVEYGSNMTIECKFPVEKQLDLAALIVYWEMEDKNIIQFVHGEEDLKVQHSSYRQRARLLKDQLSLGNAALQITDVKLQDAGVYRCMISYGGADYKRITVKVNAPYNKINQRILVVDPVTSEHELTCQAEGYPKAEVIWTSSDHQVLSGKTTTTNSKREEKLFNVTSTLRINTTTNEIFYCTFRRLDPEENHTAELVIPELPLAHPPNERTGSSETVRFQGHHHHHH

human PD-L1 on cells [2] = target: human PD-L1 on cells (human, UniProt Q9NZQ7 19-290); experiment: cell-based or functional assay
Target sequence in this assay (Q9NZQ7 19-290): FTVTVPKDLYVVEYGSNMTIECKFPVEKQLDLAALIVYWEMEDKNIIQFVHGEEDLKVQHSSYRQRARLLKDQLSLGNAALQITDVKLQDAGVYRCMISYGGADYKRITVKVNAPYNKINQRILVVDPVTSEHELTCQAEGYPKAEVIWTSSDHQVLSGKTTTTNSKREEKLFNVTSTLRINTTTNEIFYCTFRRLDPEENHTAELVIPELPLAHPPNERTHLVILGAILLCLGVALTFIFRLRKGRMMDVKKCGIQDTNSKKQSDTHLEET

hPDL1(19-239)-TVMV-His [3] = target: T2, hPDL1(19-239)-TVMV-His (human, UniProt Q9NZQ7 19-239); experiment: HTRF competition, PD-1-Ig (20 nM) binding to human PD-L1-His (10 nM)
T2 construct: The construct name says 19-239, the running text says amino acids 18-239; Expressed in HEK293T cells; also called PD-L1-His; PD-L1-TVMV-His
T2 sequence (Q9NZQ7 other isoform, or with tags, fused parts or gaps limits assumed): as the sequence (Q9NZQ7 other isoform, or with tags, fused parts or gaps limits assumed) above

hPDL1(19-239)-TVMV-His [4] = target: T1, hPDL1(19-239)-TVMV-His; experiment: HTRF competition, inhibitor titrated against PD-1-Ig binding to PD-L1-His; remark: listed apart in the source
Description: as §1
HTRF Experiments were performed essentially as outlined supra. Variant macrocyclic peptides were created as outlined herein.

hPDL1(19-239)-TVMV-His [5] = target: T3, hPDL1(19-239)-TVMV-His (human, UniProt Q9NZQ7 19-239); experiment: HTRF competition, PD-1-Ig binding to PD-L1-His
T3 construct: The text says amino acids 18-239, the construct name says 19-239; also called PD-L1-His; PD-L1-TVMV-His
T3 sequence (Q9NZQ7 other isoform, or with tags, fused parts or gaps limits assumed): as above

[6] = target: T4, human PD-L1 expressed on cells (human, UniProt Q9NZQ7 19-290); experiment: cell binding assay, PE-labeled PD-1-Ig on cells over-expressing human PD-L1, high-content imaging
T4 construct: whole, on cells; In the CMV recall assay PD-L1 is the endogenous protein on donor PBMC; also called hPD-L1; LK35.2-hPD-L1

human PD-L1 on cells [7] = target: T5, human PD-L1 on cells (human, UniProt Q9NZQ7 19-290); experiment: cell-based or functional assay; remark: listed apart in the source
T5 sequence (Q9NZQ7 19-290): as the sequence (Q9NZQ7 19-290) above

human PD-L1 on cells [8] = target: T5, human PD-L1 on cells; experiment: cell binding assay (CBA): PE-labelled PD-1-Ig on cells over-expressing human PD-L1
hPDL1(19-239)-TVMV-His [9] = target: T6, hPDL1(19-239)-TVMV-His (human, UniProt Q9NZQ7 19-239); experiment: HTRF competition of PD-1-Ig binding to PD-L1-His
T6 construct: The text says amino acids 18-239, the construct name says 19-239; The entry includes the TVMV site and the His tag; also called PD-L1-His; PD-L1-TVMV-His
T6 sequence (Q9NZQ7 other isoform, or with tags, fused parts or gaps limits assumed): as the sequence (Q9NZQ7 other isoform, or with tags, fused parts or gaps limits assumed) above

T4 sequence (Q9NZQ7 19-290): as the sequence (Q9NZQ7 19-290) above

IC50 (hPDL1(19-239)-TVMV-His [1]): 7 nM
B1: Compound No. 71 (peptide)
peptide: FFXGDVFYGWYLCG
HELM: PEPTIDE1{[O=C(C[*:3])[*:2]].F.[meF].[CCCC[C@@H](C(=O)[*:2])N(C)[*:1]].[Sar].D.V.[meF].Y.[Sar].W.Y.L.C.G.[am]}$PEPTIDE1,PEPTIDE1,1:R3-14:R3$$$V2.0
SMILES: CCCC[C@H]1C(=O)N(C)CC(=O)N[C@@H](CC(=O)O)C(=O)N[C@@H](C(C)C)C(=O)N(C)[C@@H](Cc2ccccc2)C(=O)N[C@@H](Cc2ccc(O)cc2)C(=O)N(C)CC(=O)N[C@@H](Cc2c[nH]c3ccccc23)C(=O)N[C@@H](Cc2ccc(O)cc2)C(=O)N[C@@H](CC(C)C)C(=O)N[C@H](C(=O)NCC(N)=O)CSCC(=O)N[C@@H](Cc2ccccc2)C(=O)N(C)[C@@H](Cc2ccccc2)C(=O)N1C
notes: Macrocyclic peptide; X stands for norleucine

IFNγ secretion by CMV-specific T cells (ELISA), EC50 (human PD-L1 on cells [2]): > 10000 nM
B2: Compound No. 99 (peptide)
peptide: {CH2CO}-FLIVIRDRVFRCG-NH2
modifications: thioether N-12

IC50 (hPDL1(19-239)-TVMV-His [3]): 3 nM
B3: Compound No. 118 (peptide)
peptide: {CH2CO}-F[NMeF][NMeNle][Sar]DV[NMeF]Y[Sar]WYLCG-{PEG12′-NH2}
modifications: thioether N-13

IC50 (hPDL1(19-239)-TVMV-His [3]): 21 nM
B4: Compound No. 116 (peptide)
peptide: {CH2CO}-F[NMeA]NPHL[Sar]WSW[NMeNle][NMeNle]RCG-{PEG12′-NH2}
modifications: thioether N-14

IFNγ secretion by CMV-specific T cells (ELISA), EC50 (human PD-L1 on cells [2]): 400 nM
B5: Compound No. 2 (peptide)
peptide: {CH2CO}-F[NMeA]NPHHSWRW[NMeNle][NMeNle]LCG-NH2
modifications: thioether N-14
SMILES: CCCC[C@H]1C(=O)N(C)[C@@H](CCCC)C(=O)N[C@@H](CC(C)C)C(=O)N[C@H](C(=O)NCC(N)=O)CSCC(=O)N[C@@H](Cc2ccccc2)C(=O)N(C)[C@@H](C)C(=O)N[C@@H](CC(N)=O)C(=O)N2CCC[C@H]2C(=O)N[C@@H](Cc2c[nH]cn2)C(=O)N[C@@H](Cc2c[nH]cn2)C(=O)N[C@@H](CO)C(=O)N[C@@H](Cc2c[nH]c3ccccc23)C(=O)N[C@@H](CCCNC(=N)N)C(=O)N[C@@H](Cc2c[nH]c3ccccc23)C(=O)N1C

IC50 (hPDL1(19-239)-TVMV-His [1]): 153 nM
IC50 (hPDL1(19-239)-TVMV-His [4]): 153 nM
B6: Compound No. 99 (peptide)
peptide: {CH2CO}-FLIVIRDRVFRCG-NH2
modifications: thioether N-12
notes: Macrocyclic peptide; parent of the Formula III series

IC50 (hPDL1(19-239)-TVMV-His [4]): 540 nM
B7: Compound No. 111 (peptide)
peptide: FLIVIRDRFFRCG
HELM: PEPTIDE1{[O=C(C[*:3])[*:2]].F.L.I.V.I.R.D.R.F.F.R.C.G.[am]}$PEPTIDE1,PEPTIDE1,1:R3-13:R3$$$V2.0
SMILES: CC[C@H](C)[C@@H]1NC(=O)[C@H](CC(C)C)NC(=O)[C@H](Cc2ccccc2)NC(=O)CSC[C@@H](C(=O)NCC(N)=O)NC(=O)[C@H](CCCNC(=N)N)NC(=O)[C@H](Cc2ccccc2)NC(=O)[C@H](Cc2ccccc2)NC(=O)[C@H](CCCNC(=N)N)NC(=O)[C@H](CC(=O)O)NC(=O)[C@H](CCCNC(=N)N)NC(=O)[C@H]([C@@H](C)CC)NC(=O)[C@H](C(C)C)NC1=O
notes: Macrocyclic variant of Compound No. 99

IC50 (hPDL1(19-239)-TVMV-His [5]): 132 nM
IC50 [6]: 629 nM
B8: Example 3526 (peptide)
peptide: FFXGDVFYGYYLCG
HELM: PEPTIDE1{[O=C(C[*:3])[*:2]].F.[meF].[CCCC[C@@H](C(=O)[*:2])N(C)[*:1]].[Sar].D.V.[meF].Y.[Sar].Y.Y.L.C.G.[am]}$PEPTIDE1,PEPTIDE1,1:R3-14:R3$$$V2.0
SMILES: CCCC[C@H]1C(=O)N(C)CC(=O)N[C@@H](CC(=O)O)C(=O)N[C@@H](C(C)C)C(=O)N(C)[C@@H](Cc2ccccc2)C(=O)N[C@@H](Cc2ccc(O)cc2)C(=O)N(C)CC(=O)N[C@@H](Cc2ccc(O)cc2)C(=O)N[C@@H](Cc2ccc(O)cc2)C(=O)N[C@@H](CC(C)C)C(=O)N[C@H](C(=O)NCC(N)=O)CSCC(=O)N[C@@H](Cc2ccccc2)C(=O)N(C)[C@@H](Cc2ccccc2)C(=O)N1C
notes: ClAc-Phe-[N-Me]Phe-[N-Me]Nle-Sar-Asp-Val-[N-Me]Phe-Tyr-Sar-Tyr-Tyr-Leu-Cys-Gly-NH2, cyclised

CMV Recall EC50; IFNγ secretion by CMV-specific T cells (human PD-L1 on cells [7]): 27.2 nM
IC50 (human PD-L1 on cells [8]): 1.47 nM
IC50 (hPDL1(19-239)-TVMV-His [9]): 4.11 nM
B9: Example 13006 (peptide)
peptide: {CH2CO}-Y[NMeA]DPHK[Pro(cis-4-Ph)]WKW[NMeNle][NMeNle]ECG-NH2
modifications: thioether N-14
SMILES: CCCC[C@H]1C(=O)N(C)[C@@H](CCCC)C(=O)N[C@@H](CCC(=O)O)C(=O)N[C@H](C(=O)NCC(N)=O)CSCC(=O)N[C@@H](Cc2ccc(O)cc2)C(=O)N(C)[C@@H](C)C(=O)N[C@@H](CC(=O)O)C(=O)N2CCC[C@H]2C(=O)N[C@@H](Cc2c[nH]cn2)C(=O)N[C@@H](CCCCN)C(=O)N2C[C@@H](c3ccccc3)C[C@H]2C(=O)N[C@@H](Cc2c[nH]c3ccccc23)C(=O)N[C@@H](CCCCN)C(=O)N[C@@H](Cc2c[nH]c3ccccc23)C(=O)N1C
notes: X marks Nle

IC50 (hPDL1(19-239)-TVMV-His [3]): 21 nM
B10: Compound No. 117 (peptide)
peptide: {CH2CO}-F[NMeA]NPHHSWRW[NMeNle][NMeNle]LCG-{PEG12′-NH2}
modifications: thioether N-14

CMV Recall EC50; IFNγ secretion by CMV-specific T cells (human PD-L1 on cells [7]): 38.4 nM
IC50 (human PD-L1 on cells [8]): 2.69 nM
IC50 (hPDL1(19-239)-TVMV-His [9]): 9.87 nM
B11: Example 13011 (peptide)
peptide: {CH2CO}-Y[NMeA]NPHE[trans‑Pro(4-(4-fluorobenzyl))]W[Dab]W[NMeNle][NMeNle][Dab]CG-NH2
modifications: thioether N-14
SMILES: CCCC[C@H]1C(=O)N(C)[C@@H](CCCC)C(=O)N[C@@H](CCN)C(=O)N[C@H](C(=O)NCC(N)=O)CSCC(=O)N[C@@H](Cc2ccc(O)cc2)C(=O)N(C)[C@@H](C)C(=O)N[C@@H](CC(N)=O)C(=O)N2CCC[C@H]2C(=O)N[C@@H](Cc2c[nH]cn2)C(=O)N[C@@H](CCC(=O)O)C(=O)N2C[C@H](Cc3ccc(F)cc3)C[C@H]2C(=O)N[C@@H](Cc2c[nH]c3ccccc23)C(=O)N[C@@H](CCN)C(=O)N[C@@H](Cc2c[nH]c3ccccc23)C(=O)N1C
notes: X marks Dab and Nle
